Experimental data reported in patent publication US20200407442A1 (WUXI BIOLOGICS IRELAND, published 2020).
Blank lines part the entries; values can stand above or below the binder they belong to.

What was measured:
Assay in all cases: FACS, 1 ug/mL antibody, transfected 293F cells
[1] = target: T1, Variant 2: xPro1.FL-x2 (human; mouse)
T1 construct: Chimeric full-length LAG-3 on transfected 293F cells
T1 chain: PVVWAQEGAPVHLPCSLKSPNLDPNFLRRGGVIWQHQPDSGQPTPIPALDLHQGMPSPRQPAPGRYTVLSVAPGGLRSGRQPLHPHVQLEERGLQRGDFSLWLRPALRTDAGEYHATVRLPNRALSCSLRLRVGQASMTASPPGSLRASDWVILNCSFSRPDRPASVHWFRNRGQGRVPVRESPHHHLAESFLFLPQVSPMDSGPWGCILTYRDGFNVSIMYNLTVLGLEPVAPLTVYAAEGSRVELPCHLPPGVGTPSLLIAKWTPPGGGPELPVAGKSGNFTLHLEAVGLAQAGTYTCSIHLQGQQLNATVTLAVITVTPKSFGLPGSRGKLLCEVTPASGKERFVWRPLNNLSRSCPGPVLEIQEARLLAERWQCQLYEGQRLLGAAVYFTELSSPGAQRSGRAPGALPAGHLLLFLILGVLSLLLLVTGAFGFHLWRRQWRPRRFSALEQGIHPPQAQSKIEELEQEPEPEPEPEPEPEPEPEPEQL
Experimental: (§1) The 10 variants were cloned into pcDNA3 vector and used for 293F cell transfection. Briefly, 293F cells were diluted to a density of 1×10⁶ cells/mL with FreeStyle 293F medium and aliquots of 3 mL/well were added to 24-well plate. Transfections were performed using 293fectin reagent (Life Technologies). For each transfection, 3 μg of DNA were diluted in 150 μOpti-MEM I-reduced serum medium (Life Technologies), and then combined with 6μL 293fectin reagent pre-diluted in 150 μL Opti-MEM I reduced serum medium. The DNA/[…] mixture was allowed to stand at 25° C. for 20 min before being added to the culture. The transfected cells were analyzed by flow cytometry at 48 h post-transfection.
(§2) Binding of antibodies to chimeric LAG-3 variants or full length human/mouse LAG-3 was analyzed by flow cytometry. Briefly, 1 μg/mL antibodies were incubated with chimeric LAG-3-expressing transfected 293F cells for 1 hour at 4° C., and then incubated with 3 μg/mL goat anti-human IgG Fc R-PE (Jackson) for 40 min at 4° C. Cells were analyzed with flow cytometer.

[2] = target: T2, Variant 5: xPro1.FL-x5 (human; mouse)
T2 construct: Chimeric full-length LAG-3 on transfected 293F cells
T2 chain: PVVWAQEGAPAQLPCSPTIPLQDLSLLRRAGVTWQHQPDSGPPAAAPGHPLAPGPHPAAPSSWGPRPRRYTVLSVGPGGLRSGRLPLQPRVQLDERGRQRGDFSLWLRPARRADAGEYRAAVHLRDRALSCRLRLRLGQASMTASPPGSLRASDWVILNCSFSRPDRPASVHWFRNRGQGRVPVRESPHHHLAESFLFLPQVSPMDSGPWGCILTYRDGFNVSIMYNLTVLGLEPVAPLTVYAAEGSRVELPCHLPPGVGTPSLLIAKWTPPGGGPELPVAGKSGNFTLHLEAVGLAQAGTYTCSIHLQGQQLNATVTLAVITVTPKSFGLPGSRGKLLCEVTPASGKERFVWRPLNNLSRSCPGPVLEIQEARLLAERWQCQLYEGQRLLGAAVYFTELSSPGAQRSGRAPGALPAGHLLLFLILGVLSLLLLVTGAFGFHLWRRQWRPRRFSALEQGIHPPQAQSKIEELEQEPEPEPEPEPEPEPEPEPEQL
Experimental: as §1, §2

[3] = target: T3, Variant 6: xPro1.FL-x6 (human; mouse)
T3 construct: Chimeric full-length LAG-3 on transfected 293F cells
T3 chain: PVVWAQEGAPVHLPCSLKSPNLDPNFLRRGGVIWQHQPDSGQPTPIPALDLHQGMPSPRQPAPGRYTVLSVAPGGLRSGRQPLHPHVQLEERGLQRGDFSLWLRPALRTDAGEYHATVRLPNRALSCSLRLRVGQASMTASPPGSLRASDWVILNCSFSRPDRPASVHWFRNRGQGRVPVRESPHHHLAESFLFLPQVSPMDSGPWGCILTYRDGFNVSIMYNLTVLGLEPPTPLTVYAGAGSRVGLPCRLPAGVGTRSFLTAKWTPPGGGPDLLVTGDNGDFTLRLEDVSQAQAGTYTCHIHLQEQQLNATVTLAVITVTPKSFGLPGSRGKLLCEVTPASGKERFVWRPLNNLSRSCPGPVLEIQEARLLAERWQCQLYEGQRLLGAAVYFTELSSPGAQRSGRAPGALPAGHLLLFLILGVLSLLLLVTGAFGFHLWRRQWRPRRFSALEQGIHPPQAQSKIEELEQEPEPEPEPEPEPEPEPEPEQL
Experimental: as §1, §2

[4] = target: T4, full-length human LAG-3 on cells (human, UniProt P18627 23-525)
T4 construct: Expressed on Flp-In-293, CHO or 293F transfectants; also called hPro1.FL; cell surface human LAG-3
T4 sequence: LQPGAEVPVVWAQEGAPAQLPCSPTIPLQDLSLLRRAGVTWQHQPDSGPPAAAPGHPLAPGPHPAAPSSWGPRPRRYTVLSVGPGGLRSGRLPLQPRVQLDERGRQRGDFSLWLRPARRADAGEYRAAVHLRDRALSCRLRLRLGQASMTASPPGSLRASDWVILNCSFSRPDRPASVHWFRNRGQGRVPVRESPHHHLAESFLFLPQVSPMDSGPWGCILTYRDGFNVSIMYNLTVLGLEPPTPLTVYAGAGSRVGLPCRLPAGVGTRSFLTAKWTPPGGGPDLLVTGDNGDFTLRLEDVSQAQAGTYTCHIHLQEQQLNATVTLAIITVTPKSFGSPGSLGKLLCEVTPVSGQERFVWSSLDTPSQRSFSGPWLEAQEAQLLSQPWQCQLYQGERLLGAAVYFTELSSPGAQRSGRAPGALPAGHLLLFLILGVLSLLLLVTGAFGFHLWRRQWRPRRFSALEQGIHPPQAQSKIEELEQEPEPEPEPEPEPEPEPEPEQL
Experimental: as §1, §2

MFI [1]: 45
PE+ % [1]: 1.77%
MFI [2]: 6260
PE+ % [2]: 97.1%
MFI [3]: 59.9
PE+ % [3]: 1.86%
MFI [4]: 6540
PE+ % [4]: 96.8%
B1: 1.53.3-uAb-IgG4k (antibody, V domains shown)
VH: QVQLQQWGAGLLKPSETLSLTCGVYGGSFSGYYWSWIRQPPGMGLEWIGEINHRGNTNYNPSLKSRVTISEDTSKNQFSLRLSSVTAADTAVYFCTRGEDYSDYDYYGDFWGQGTLVTVSS
VL: EIVLTQSPATLSLSQGERATLSCRASQSISSYLAWYQQKPGQAPRLLIYAASNRATGIPARFSGSGSGTDFTLTISSLEPEDFAIYYCQQRSNWPLTFGGGTKVEIK
notes: Fully human antibody from OMT rats; IgG4 kappa by its name

MFI [1]: 40.6
PE+ % [1]: 0.305%
MFI [2]: 7070
PE+ % [2]: 75.9%
MFI [3]: 44.1
PE+ % [3]: 0.674%
MFI [4]: 6520
PE+ % [4]: 83.5%
B2: 3.40.19-uAb-IgG4L (antibody, V domains shown)
VH: QLQLQESGPGLVKPSETLSLTCTVSGDSISSTSYYWGWIRQPPGKGLEWIGSFYYSGSTYYNPSLKSRVTISVDTSKNQFSLKLNSVTAADTAVYYCARMQLWSYDVDVWGQGTTVTVSS
VL: QSALTQPASVSGSPGQSITISCTGTSSDVGGYDYVAWYQQHPGKVPKLMIYDVSERPSGVSNRFSGSKSGNTASLTISGLQAEDEADYYCSSYTSTTTLVVFGGGTKLSVL
notes: Fully human antibody from OMT rats; IgG4 lambda by its name; also called 3.40.19-uAb-hIgG4L
